B1: endogenous 14-3-3ζ (YWHAZ) in A549 cells, P63104 1-245 (natural protein)
chain: MDKNELVQKAKLAEQAERYDDMAACMKSVTEQGAELSNEERNLLSVAYKNVVGARRSSWRVVSSIEQKTEGAEKKQQMAREYREKIETELRDICNDVLSLLEKFLIPNASQAESKVFYLKMKGDYYRYLAEVAAGDDKKGIVDQSQQAYQEAFEISKKEMQPTHPIRLGLALNFSVFYYEILNSPEKACSLAKTAFDEAIAELDTLSEESYKDSTLIMQLLRDNLTLWTSDTQGDEAEAGEGGEN
B2: purified recombinant 14-3-3ζ, P63104 1-245 (natural protein)
chain: B1 chain

How the values were obtained:
Conditions in all cases: remark: other sources report otherwise
[1] = molecular target: T1, endogenous 14-3-3ζ (YWHAZ) in A549 cells (human (endogenous in A549)), P63104; test: cross-linking
T1 chain: B1 chain

[2] = molecular target: T1, endogenous 14-3-3ζ (YWHAZ) in A549 …; test: native gel or EMSA
[3] = molecular target: T2, purified recombinant 14-3-3ζ, P63104; test: cross-linking
T2 chain: B1 chain

Binder	stoichiometry N [1]	stoichiometry N [2]	stoichiometry N [3]
B1	2	2	
B2			2
